Reference: PMC4121237, “Engineering Neprilysin Activity and Specificity to Create a Novel Therapeutic for Alzheimer’s Disease” (PLoS ONE, 2014)

Assays:
Substance P = assay: Steady-state kinetics of peptide cleavage, fluorescence polarisation; format: biochemical; settings: substrate Substance P
Method: (§1) For detailed kinetic characterisation of peptide cleavage by NEP, a similar assay to that above was used with modifications based on a published method. Peptides were synthesised by Bachem using 9-fluorenylmethyloxycarbonyl solid-phase peptide synthesis and were labelled with a N-terminal 5(6)FAM via a ε-aminocaproic acid linker and a C-terminal biotin via a lysine linker (Table S1). Purified peptides were supplied as trifluoroacetate salts with a purity ≥95%. The assay was performed in a 96-well microtitre plate and contained 50 mM HEPES (pH 7.4), 100 mM NaCl, 0.05% (w/v) BSA (Buffer A), 1–200 µM peptide substrate and 1–500 nM NEP protein. Reactions were incubated at 37°C before being stopped at various time points between 2 and 360 min by transferring 5 µL aliquots to 245 µL Buffer A containing 2 mM 1,10-phenanethroline (Sigma) and 2 µM avidin (Invitrogen). For peptide substrates containing disulphide bonds, 1 mM tris(2-carboxyethyl)phosphine (Thermo Scientific) was added to the stop solution. The fluorescence polarisation of the resulting solution was measured on a Victor plate reader and the amount of substrate cleaved was determined with reference to substrate-only controls with and without avidin. Initial rates were obtained by linear regression of the linear regions of time courses. Enzyme velocity was plotted as a function of substrate concentration and the Michaelis-Menten equation was used to fit the data, giving the parameters kcat and KM.

GLP-1 = assay: as above; format: biochemical; settings: substrate GLP-1
Method: as §1

Somatostatin 28 = assay: as above; format: biochemical; settings: substrate Somatostatin 28
Method: as §1

Neurokinin B = assay: as above; format: biochemical; settings: substrate Neurokinin B
Method: as §1

Bradykinin = assay: as above; format: biochemical
Method: as §1

α-endorphin = assay: as above; format: biochemical; settings: substrate α-endorphin
Method: as §1

GRP = assay: as above; format: biochemical; settings: substrate GRP
Method: as §1

γ-endorphin = assay: as above; format: biochemical; settings: substrate γ-endorphin
Method: as §1

Arg-vasopressin = assay: as above; format: biochemical; settings: substrate Arg-vasopressin
Method: as §1

Somatostatin 14 = assay: as above; format: biochemical; settings: substrate Somatostatin 14
Method: as §1

Glucagon = assay: as above; format: biochemical; settings: substrate Glucagon
Method: as §1

Aβ1–42 = molecular target: T1, Aβ1–42 (Homo sapiens, UniProt P05067); assay: Endpoint degradation assay with ELISA read-out; format: biochemical; settings: 1 hour at room temperature; Aβ42 ELISA
T1 construct: Aβ 1-42^a
Method: (§2) Supplementary file pone.0104001.s001.tif: Figure S1 Degradation of Aβ1–40 and Aβ1–42 by NEP wild-type and NEPv. Measurement of the degredation of Aβ1–40 (A) and Aβ1–42 (B) was performed by incubating peptide and either wild-type NEP (▪) or NEPv (Δ) for 1 hour at room temperature. The reaction was stopped by the addition of 1.10-phenanthroline to a final concentration of 10 µM. 50 µl (Aβ40 analysis) or 100 µl (Aβ42 analysis) of the reaction mix was transferred to an ELISA plate. Aβ40 and Aβ42 concentrations after degradation were determined using Invitrogen human Aβ40 ELISA kit (Invitrogen, California, US), and Innotest β-amyloid RUO (1–42) ELISA (Innogenetics, Gent, Belgium). […] (TIF) Click here for additional data file.

Aβ1–40 = assay: Endpoint degradation assay with ELISA read-out; format: biochemical, human; settings: 1 hour at room temperature; Aβ40 ELISA
Method: as §2

[1] = system: panel of off-target peptides; assay: Steady-state kinetics across the panel of off-target peptides; format: biochemical
Method: For detailed kinetic characterisation of peptide cleavage by NEP, a similar assay to that above was used with modifications based on a published method. Peptides were synthesised by Bachem using 9-fluorenylmethyloxycarbonyl solid-phase peptide synthesis and were labelled with a N-terminal 5(6)FAM via a ε-aminocaproic acid linker and a C-terminal biotin via a lysine linker (Table S1). Purified peptides were supplied as trifluoroacetate salts with a purity ≥95%. The assay was performed in a 96-well microtitre plate and contained 50 mM HEPES (pH 7.4), 100 mM NaCl, 0.05% (w/v) BSA (Buffer A), 1–200 µM peptide substrate and 1–500 nM NEP protein. […] The fluorescence polarisation of the resulting solution was measured on a Victor plate reader and the amount of substrate cleaved was determined with reference to substrate-only controls with and without avidin. […]
Kinetic parameters for cleavage of endothelin-1 by NEP were determined using a stopped assay in which the amount of substrate cleaved was measured using reversed-phase HPLC (RP-HPLC). […] RP-HPLC spectra were recorded using an Agilent 1260 Infinity system. […] Signal intensity for intact endothelin-1 was monitored at 210 nm and relative peak area was determined by manual integration of the baseline. […]
Kinetic parameters for cleavage of a panel of peptides by wild-type NEP and NEPv were determined (Figure 3 and Table 2). […]

Endothelin-1 = assay: Steady-state kinetics of endothelin-1 cleavage, stopped assay with RP-HPLC; format: biochemical
Method: Kinetic parameters for cleavage of endothelin-1 by NEP were determined using a stopped assay in which the amount of substrate cleaved was measured using reversed-phase HPLC (RP-HPLC). Endothelin-1 was incubated at 12.5–200 µM in the presence of wild type NEP or NEPv and reactions were stopped after 10 min at 37°C by the addition of an equal volume of 1∶1∶1 water:acetonitrile:TFA containing 2 mM tris(2-carboxyethyl)phosphine (Thermo Scientific). RP-HPLC spectra were recorded using an Agilent 1260 Infinity system. Injections of 20 µL were made for each sample and analytes were separated by elution on an Agilent Polaris C8-A stationary phase column (4.6×100 mm, 3 µm) at 1.5 mL min^−1 using a linear binary gradient of 10–90% acetonitrile in water with 0.1% (v/v) TFA over 15 minutes at 40°C. Signal intensity for intact endothelin-1 was monitored at 210 nm and relative peak area was determined by manual integration of the baseline. Kinetic parameters were derived from the activity data as described above.

[2] = ratio of wild-type NEP kcat/KM to that of the mutant
[3] = substrate Bradykinin, 37°C, pH 7.4
[4] = substrate Endothelin-1 (unlabelled), RP-HPLC, 10 min at 37°C

T1 sequence (P05067 672-713): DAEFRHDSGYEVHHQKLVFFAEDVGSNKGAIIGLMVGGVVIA

B1: NEPv: lead variant at round 2, human NEP ectodomain with the two mutations G399V and G714K (protein, UniProt P08473 52-750, looked up, variant G399V G714K)
extracellular domain: YDDGICKSSDCIKSAARLIQNMDATTEPCTDFFKYACGGWLKRNVIPETSSRYGNFDILRDELEVVLKDVLQEPKTEDIVAVQKAKALYRSCINESAIDSRGGEPLLKLLPDIYGWPVATENWEQKYGASWTAEKAIAQLNSKYGKKVLINLFVGTDDKNSVNHVIHIDQPRLGLPSRDYYECTGIYKEACTAYVDFMISVARLIRQEERLPIDENQLALEMNKVMELEKEIANATAKPEDRNDPMLLYNKMTLAQIQNNFSLEINGKPFSWLNFTNEIMSTVNISITNEEDVVVYAPEYLTKLKPILTKYSARDLQNLMSWRFIMDLVSSLSRTYKESRNAFRKALYVTTSETATWRRCANYVNGNMENAVGRLYVEAAFAGESKHVVEDLIAQIREVFIQTLDDLTWMDAETKKRAEEKALAIKERIGYPDDIVSNDNKLNNEYLELNYKEDEYFENIIQNLKFSQSKQLKKLREKVDKDEWISGAAVVNAFYSSGRNQIVFPAGILQPPFFSAQQSNSLNYGGIGMVIGHEITHGFDDNGRNFNKDGDLVDWWTQQSASNFKEQSQCMVYQYGNFSWDLAGGQHLNGINTLGENIADNGGLGQAYRAYQNYIKKNGEEKLLPGLDLNHKQLFFLNFAQVWCGTYRPEYAVNSIKTDVHSPKNFRIIGTLQNSAEFSEAFHCRKNSYMNPEKKCRVW
modifications: extracellular domain
In the case of B1, the Km (Substance P; 37°C, pH 7.4) is reported as 92 ± 10 µM, the kcat (Substance P; 37°C, pH 7.4) is reported as 12 ± 0.9 s⁻¹ and the “Fold change in kcat/KM” value (Substance P; [2]) is reported as 8.7. The Km (GLP-1; 37°C, pH 7.4) was 23 ± 4 µM, the kcat (GLP-1; 37°C, pH 7.4) was 0.89 ± 0.07 s⁻¹ and the “Fold change in kcat/KM” value (GLP-1; [2]) was 3.6. For the same molecule, the Km (Somatostatin 28; 37°C, pH 7.4) was 47 ± 20 µM, the kcat (Somatostatin 28; 37°C, pH 7.4) was 0.086 ± 0.02 s⁻¹ and the “Fold change in kcat/KM” value (Somatostatin 28; [2]) was 87. For the same molecule, the Km (Neurokinin B; 37°C, pH 7.4) was 22 ± 3 µM, the kcat (Neurokinin B; 37°C, pH 7.4) was 0.42 ± 0.03 s⁻¹ and the “Fold change in kcat/KM” value (Neurokinin B; [2]) was 48. The “specificity switch in favor of cleavage of Aβ” value (Bradykinin; Aβ1–40 versus bradykinin) was 6.4×10^4, the Km (Bradykinin; [3]) was 37 ± 10 µM and the kcat (Bradykinin; [3]) was 0.0055 ± 0.001 s⁻¹. For the same molecule, the Km (α-endorphin; 37°C, pH 7.4) was 6.5 ± 1 µM, the kcat (α-endorphin; 37°C, pH 7.4) was 0.089 ± 0.003 s⁻¹ and the “Fold change in kcat/KM” value (α-endorphin; [2]) was 26. For the same molecule, the “reduction in kcat relative to wild-type NEP” value (GRP) was 67 fold, the Km (GRP; 37°C, pH 7.4) was 120 ± 20 µM and the kcat (GRP; 37°C, pH 7.4) was 0.39 ± 0.05 s⁻¹. For the same molecule, the “Fold change in kcat/KM” value (GRP; [2]) was 52, the Km (γ-endorphin; 37°C, pH 7.4) was 4.4 ± 0.6 µM and the kcat (γ-endorphin; 37°C, pH 7.4) was 0.16 ± 0.006 s⁻¹. The “Fold change in kcat/KM” value (γ-endorphin; [2]) was 10, the Km (Arg-vasopressin; 37°C, pH 7.4) was 22 ± 3 µM and the kcat (Arg-vasopressin; 37°C, pH 7.4) was 0.017 ± 0.001 s⁻¹. The “Fold change in kcat/KM” value (Arg-vasopressin; [2]) was 510, the Km (Somatostatin 14; 37°C, pH 7.4) was 32 ± 3 µM and the kcat (Somatostatin 14; 37°C, pH 7.4) was 9.1 ± 0.4 s⁻¹. For the same molecule, the “Fold change in kcat/KM” value (Somatostatin 14; [2]) was 15, the Km (Glucagon; 37°C, pH 7.4) was 30 ± 6 µM and the kcat (Glucagon; 37°C, pH 7.4) was 1.2 ± 0.1 s⁻¹. For the same molecule, the “Fold change in kcat/KM” value (Glucagon; [2]) was 4.2, the EC50 (Aβ1–42) was 19.5 nM and the EC50 (Aβ1–40) was 21.3 nM. The “reduction in activity on other peptides” value ([1]; other (off-target) peptides, relative to wild-type) was ≤ 3,200 fold, the “average specificity switch (ratio of the fold change in kcat/KM on Aβ1–40 to that on other peptides)” value ([1]; panel of 16 peptides) was 5,300 fold and the Km (Endothelin-1; [4]) was 57 ± 20 µM. The kcat (Endothelin-1; [4]) was 0.059 ± 0.008 s⁻¹ and the “Fold change in kcat/KM” value (Endothelin-1; substrate Endothelin-1, ratio of wild-type NEP kcat/KM to that of the mutant) was 13.
